Reference: patent US20190264194A1 (published 2019)
Positions of bridges follow the written chain, without caps; N, C: chain ends. No end group written: not given here.

What was measured:
human C-reactive protein [1] = target: T1, human C-reactive protein (human, UniProt P02741 19-224); test: apparent whole-cell KD, flow cytometry with CRP-Alexa Fluor 488
T1 construct: Biotinylated or labelled with Alexa Fluor 488; also called CRP; C-RP
T1 sequence (looked up): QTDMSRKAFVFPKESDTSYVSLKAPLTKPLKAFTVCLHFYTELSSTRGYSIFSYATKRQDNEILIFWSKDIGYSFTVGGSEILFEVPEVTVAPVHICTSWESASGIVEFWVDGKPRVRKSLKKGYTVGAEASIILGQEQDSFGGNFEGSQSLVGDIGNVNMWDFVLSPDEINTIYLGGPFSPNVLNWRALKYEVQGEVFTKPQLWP
Description: (§1) To obtain equilibrium binding curves, cells were labeled over a range of concentrations, e.g., about 0.1 to about 200 nM, of fluorescently conjugated target proteins (streptavidin-phycoerythrin or CRP-Alexa Fluor® 488) and analyzed by flow cytometry, as above. The corresponding mean fluorescence versus concentration data were fit to a monovalent binding isotherm to obtain the apparent KD. Dissociation rates of streptavidin-binding clones were measured in the presence of about 1 to about 2 μM biotin. Cells were labeled with 50 nM streptavidin-phycoerythrin for 30 minutes at room temperature. The cells were then pelleted, resuspended in PBS with biotin, and immediately analyzed by flow cytometry. Fluorescence data were collected continuously for about five minutes. The dissociation rate constants were then determined as described previously. See Daugherty, P. S., et al. (1998) Protein Eng. 11(9):825-832, which is herein incorporated by reference.

human C-reactive protein [2] = target: T1, human C-reactive protein; test: equilibrium dissociation constant of a selected displayed peptide, whole-cell flow cytometry at various CRP concentrations
Description: The library was first depleted of streptavidin binding peptides by incubation with streptavidin coated microbeads, e.g., from Qiagen, Inc. (Valencia, Calif.). Then the library was incubated with biotinylated human C-reactive protein at 10 nM final concentration, and two rounds of magnetic selection were used to enrich CRP binding peptides. […] Equilibrium binding affinities were measured in the whole cell format, by determining cell fluorescence at various concentrations of target CRP. See e.g. FIG. 17.
as §1, with “11(9):825-832, which is herein incorporated by reference.” left out

streptavidin [3] = target: T2, streptavidin (UniProt P22629 37-163, limits assumed); test: whole-cell dissociation by flow cytometry, 1-2 uM biotin as competitor
T2 construct: Used as phycoerythrin conjugate or on coated beads; also called SA; streptavidin-phycoerythrin
Description: The apparent binding affinities of a subset of the selected peptides were determined using flow cytometric analysis. […] See Daugherty, P. S., et al. (1998) Protein Eng. 11(9):825-832, which is herein incorporated by reference. […] See Daugherty, P. S., et al. (1998) Protein Eng. 11(9):825-832; and Feldhaus, M. J., et al. (2003) Nat. Biotechnol. 21(2): 163-170, which are herein incorporated by reference. […] Apparent dissociation rate constants (kdiss) were determined for streptavidin, using about 1 to about 2 μM biotin as a competitor to prevent re-binding.
as §1

streptavidin [4] = target: T2, streptavidin; test: apparent whole-cell KD, flow cytometry with streptavidin-phycoerythrin
Description: as §1

streptavidin [5] = target: T2, streptavidin; test: equilibrium dissociation constant of a selected displayed peptide, whole-cell flow cytometry
Description: as §1

streptavidin [6] = target: T2, streptavidin; test: whole-cell dissociation by flow cytometry with biotin as competitor
Description: (§2) To enable comparison of the phage and bacterial display peptides, a bacterial display clone was constructed with the insertion, […] (SEQ ID NO:65), and the KD and kdiss were measured in whole cell assays.
as §1

streptavidin [7] = target: T2, streptavidin; test: selection from the E. coli OmpA display library
streptavidin [8] = target: T2, streptavidin; test: apparent whole-cell KD, flow cytometry with streptavidin-phycoerythrin; remark: listed apart in the source
Description: as §2, §1

streptavidin [9] = target: T2, streptavidin; test: whole-cell dissociation by flow cytometry (FIG. 10B), SA-7 against SA-1
Description: as §1

B1: CRP-1 (peptide)
peptide: EWACNDRGFNCQLQR
modifications: not fully specified (bridges); cysteine pairing not given here
notes: Insert only; said to be a cyclic peptide (two cysteines)
With B1 the Kd (human C-reactive protein [1]) was 1 nM and the Kd (human C-reactive protein [2]) was 1.2 nM.

B2: SA-3 (peptide)
peptide: TVLICMNICWTGETQ
notes: Insert only
Binder B2 has a koff (streptavidin [3]) of roughly 0.001 s⁻¹, a Kd (streptavidin [4]) of 4 nM and a Kd (streptavidin [5]) of 4 nM. For the same binder, the koff (streptavidin [6]) was 0.0007 s⁻¹.

B3: SEQ ID NO 243 (peptide)
peptide: QVKLHPMAPVVPSHW
B3: binds (streptavidin [7]).

B4: Clone HPQ (peptide)
peptide: SAECHPQGPPCIEGR
modifications: disulfide 4-11 (inferred)
notes: Insert only; also called cyclic HPQ clone
In the case of B4, the “fold higher apparent KD against clone SA-1” value (streptavidin [8]) is reported as 5 fold and the “fold faster dissociation rate (kdiss) against clone SA-1” value (streptavidin [6]) is reported as 20 fold.

B5: SA-7 (peptide)
peptide: NEWYCQNVCERMPHS
notes: Insert only
B5 was tested, and the “fold difference of dissociation rate constant against SA-1” value (streptavidin [9]) was 4 fold and the koff (streptavidin [3]) was roughly 0.01 s⁻¹.
